{
  "source": "paper PMC3954559",
  "binders": {"B1": {"name": "mouse Fc receptor (FcR gamma I) (receptor)", "chain": "EVVNATKAVITLQPPWVSIFQKENVTLWCEGPHLPGDSSTQWFINGTAVQISTPSYSIPEASFQDSGEYRCQIGSSMPSDPVQLQIHNDWLLLQASRRVLTEGEPLALRCHGWKNKLVYNVVFYRNGKSFQFSSDSEVAILKTNLSHSGIYHCSGTGRHRYTSAGVSITVKELFTTPVLRASVSSPFPEGSLVTLNCETNLLLQRPGLQLHFSFYVGSKILEYRNTSSEYHIARAEREDAGFYWCEVATEDSSVLKRSPELELQVLGPQSSAPVWFHILFYLSVGIMFSLNTVLYVKIHRLQREKKYNLEVPLVSEQGKKANSFQQVRSDGVYEEVTATASQTTPKEAPDGPRSSVGDCGPEQPEPLPPSDSTGAQTSQS"}},
  "key": {"[1]": {"molecular_target": "commercial immunoglobulin containing Fc", "experiment": "SPR"}, "[2]": {"molecular_target": "partially deglycosylated Fc (mouse IgG3 Fc domain treated with a mixture of endoglycosidases) (mouse)", "experiment": "SPR"}},
  "data": [
    {"binder": "B1", "values": [
      {"measurement": "Kd", "setting": "[1]", "result": 384, "unit": "nM"},
      {"measurement": "Kd", "setting": "[2]", "result": 1330, "unit": "nM"}
    ]}
  ]
}
